Measured values reported in publication PMC4157346 (The Biochemical journal, 2013).

Tests used:
[1] = target: CXCL8-(1-66) truncated monomer (human); assay: NMR titration
[2] = target: CXCL8-(1-66) P32G mutant, 15N-labelled (human, 15N-labelled); assay: NMR titration

Kd [1]: 12 ± 2 µM
Kd [2]: 11 ± 1 µM
Binder: LWTWFEDEFANATGMPPVEKDYSPCLVVTQTLNK [CXCR1 N-terminal domain peptide]
